Reference: patent US10538585 (dated 2020)
Numbering of substitutions follows the chain as printed.

T1: human ANG2-RBD-Fc (human, UniProt O15123)
T1 chain: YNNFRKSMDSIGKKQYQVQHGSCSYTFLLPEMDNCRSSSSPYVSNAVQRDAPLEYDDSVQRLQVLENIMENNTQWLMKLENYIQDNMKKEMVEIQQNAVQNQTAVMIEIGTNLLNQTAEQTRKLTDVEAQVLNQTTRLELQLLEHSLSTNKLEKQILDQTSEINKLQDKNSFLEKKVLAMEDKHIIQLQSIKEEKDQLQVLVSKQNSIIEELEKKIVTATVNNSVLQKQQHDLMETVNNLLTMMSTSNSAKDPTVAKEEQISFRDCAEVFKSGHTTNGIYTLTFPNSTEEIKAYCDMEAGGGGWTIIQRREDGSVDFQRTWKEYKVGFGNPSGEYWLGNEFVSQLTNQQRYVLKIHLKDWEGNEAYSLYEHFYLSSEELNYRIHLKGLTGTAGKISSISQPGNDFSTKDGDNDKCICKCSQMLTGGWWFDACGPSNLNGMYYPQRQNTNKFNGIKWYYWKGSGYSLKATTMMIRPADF

T2: human ANG2 (human, UniProt O15123)
T2 chain: T1 chain

B1: 0075 (antibody, V domains shown)
VH: not shown
VL: SYVLTQPPSVSVAPGQTARITCGGNNIGSKSVHWYQQKPGQAPVLVVYDTSDRPSGIPERFSGSNSGNTATLTISRVEAGDEADYYCQVWDSSSDHWVFGGGTKLTVLS
B2: 0041 (antibody, V domains shown)
VH: not shown
VL: B1 VL with T50D
B3: 0090 (antibody)
chain 1: not shown
chain 2: SYVLTQPPSVSVAPGQTARITCGGNNIGSKSVHWYQQKPGQAPVLVVYDTSDRPSGIPERFSGSNSGNTATLTISRVEAGDEADYYCQVWDSSSDHWVFGGGTKLTVLSSASTKGPSVFPLAPSSKSTSGGTAALGCLVKDYFPEPVTVSWNSGALTSGVHTFPAVLQSSGLYSLSSVVTVPSSSLGTQTYICNVNHKPSNTKVDKKVEPKSC
B4: 0166 ANG2 arm (antibody, V domains shown)
VH: not shown
VL: B1 VL
B5: 0164 ANG2 arm (antibody, V domains shown)
VH: not shown
VL: B1 VL with S1Q, Y2P, V3G, W97Y, G101T, L105V
B6: 0163 ANG2 arm (antibody, V domains shown)
VH: not shown
VL: B1 VL with S1Q, Y2P, V3G, W97Y, G101T, L105V
B7: 0165 ANG2 arm (antibody)
chain 1: not shown
chain 2: B3 chain 2
B8: 0101 (antibody, V domains shown)
VH: not shown
VL: B1 VL
B9: 0099 (antibody, V domains shown)
VH: not shown
VL: B1 VL with T50D
B10: 0100 (antibody)
chain 1: not shown
chain 2: B3 chain 2
B11: 0058 (antibody, V domains shown)
VH: not shown
VL: B1 VL with T50D
B12: 0057 (antibody, V domains shown)
VH: not shown
VL: B1 VL with T50D
B13: 0060 (antibody, V domains shown)
VH: not shown
VL: B1 VL
B14: 0042 (antibody, V domains shown)
VH: not shown
VL: B1 VL with T50D
B15: 0061 (antibody, V domains shown)
VH: not shown
VL: B1 VL
B16: 0040 (antibody, V domains shown)
VH: not shown
VL: B1 VL with T50D
B17: 0017 (antibody, V domains shown)
VH: not shown
VL: B1 VL with T50D
B18: 0026 (antibody, V domains shown)
VH: not shown
VL: B1 VL with T50D
B19: 0025 (antibody, V domains shown)
VH: not shown
VL: B1 VL with T50D
B20: 0074 (antibody, V domains shown)
VH: not shown
VL: B1 VL with T50D
B21: 0156 (antibody, V domains shown)
VH: not shown
VL: B1 VL with S1Q, Y2P, V3G, W97Y, G101T, L105V
B22: 0155 (antibody, V domains shown)
VH: not shown
VL: B1 VL with S1Q, Y2P, V3G, W97Y, G101T, L105V
B23: 0033 (antibody, V domains shown)
VH: not shown
VL: B1 VL with T50D
B24: 0027 (antibody, V domains shown)
VH: not shown
VL: B1 VL with T50D
B25: 0028 (antibody, V domains shown)
VH: not shown
VL: B1 VL with T50D

Molecular target: T1, human ANG2-RBD-Fc
Experiment: SPR

Binder | Kd [nM]
B1 | 14
B2 | 1
B3 | 1

Molecular target: T1, human ANG2-RBD-Fc
Experiment: SPR
Remark: another data set of the same source

Binder | Kd [nM]
B4 | 49
B5 | 39
B6 | 4
B7 | 4

Molecular target: T1, human ANG2-RBD-Fc
Experiment: SPR bivalent

Binder | Kd [nM]
B8 | 0.007
B9 | 0.004
B10 | 0.008

Molecular target: T1, human ANG2-RBD-Fc
Experiment: SPR
Remark: another data set of the same source

Binder | Kd [nM]
B11 | 21
B12 | 29
B13 | 21
B14 | 4
B2 | 1
B15 | 18
B16 | 23

Molecular target: T1, human ANG2-RBD-Fc
Experiment: SPR
Remark: another data set of the same source

Binder | Kd [nM]
B17 | 12
B18 | 18
B19 | 38

Molecular target: T2, human ANG2
Experiment: competition, Tie2 binding inhibition (pTie2 ELISA)

Binder | EC50 [nM]
B1 | 39
B3 | 7

Molecular target: T1, human ANG2-RBD-Fc
Experiment: SPR
Remark: another data set of the same source

Binder | Kd [nM]
B1 | 14
B20 | 16
B3 | 1

Molecular target: T1, human ANG2-RBD-Fc
Experiment: SPR
Remark: another data set of the same source

Binder | Kd [nM]
B21 | 5
B22 | 43

Molecular target: T1, human ANG2-RBD-Fc
Experiment: SPR
Remark: another data set of the same source

Binder | Kd [nM]
B23 | 3
B24 | 69
B25 | 143

Molecular target: T2, human ANG2
Experiment: competition, Tie2 binding inhibition (pTie2 ELISA)
Remark: another data set of the same source

Binder | EC50 [nM]
B8 | 3
B9 | 3.2
B10 | 3.2

Molecular target: T1, human ANG2-RBD-Fc
Experiment: SPR bivalent
Remark: another data set of the same source

Binder | Kd [nM]
B8 | 0.007
B9 | 0.004
B10 | 0.008

Molecular target: T2, human ANG2
Experiment: competition, Tie2 binding inhibition (pTie2 ELISA)
Remark: another data set of the same source

Binder | EC50 [nM]
B2 | 5.4
